This passage reports Kd and other: signal change (%) results from publication PMC13376213, “Systematic discovery of motif-based interactions of the auxiliary domains of USP family deubiquitinases” (Nature Communications, 2026).

As usually defined, the Kd is the free concentration of one partner at which half of the binding sites on the other are occupied at equilibrium, for simple one-to-one binding.

The target in the first test is USP22 zf-UBP domain, tag cleaved (for FP) (human) (UniProt Q9UPT9). Nature of the test: fluorescence polarisation; saturation or displacement not stated for this experiment; 50 mM phosphate buffer pH 7.4, room temperature.
Details: not given
For orientation: Fluorescence polarisation rises when a labelled molecule tumbles more slowly, as on binding a larger partner.
Take “ATXN7_(84-105) peptide (from UniProt O15265 84-105)”: the dissociation constant Kd is 58 µM.

The target in a further test is USP20 DUSP2 domain (human) (UniProt Q9Y2K6). The test is described as follows: fluorescence polarisation; displacement: serial dilution of the unlabelled peptide against the domain (at two-fold the KD of the FITC-labelled peptide) in complex with 10 nM FITC-labelled peptide; 50 mM phosphate buffer pH 7.4; room temperature; three technical replicates; sigmoidal dose-response fit.
Details: not given
HIF1A 564-581 F572A peptide came in with a Kd of 589 µM.

Another test deals with USP33 DUSP2 domain (human) (UniProt Q8TEY7). Described as above.
Details: not given
Take HIF1A 564-581 F572A peptide: the equilibrium dissociation constant (Kd) was 930 µM.

Another test deals with CYLD CAP-Gly1 domain, GST-tagged (UniProt Q9NQC7). The test is described as follows: peptide SPOT array alanine scanning. The conditions noted are these: parent: est. 0; read off a plot.
“RBM25_(558-573) peptide (from UniProt P49756) A569 (replacement residue not printed)”: the other: signal change (%) was -60%.
The same measure, in the same setting: to “RBM25_(558-573) peptide (from UniProt P49756) A560 (replacement residue not printed)” belongs -25%.

A further test has as its target CYLD CAP-Gly2 domain, GST-tagged (UniProt Q9NQC7). The test is described as follows: peptide SPOT array alanine scanning. The settings on record: parent: est. 0; read off a plot.
With FBXO46_(168-183) peptide V179A, the other: signal change (%) was -80%.
The same measure, in the same setting: the value for FBXO46_(168-183) peptide V172A was -75%; that for FBXO46_(168-183) peptide Q181A was 0%.
With FBXO46_(168-183) peptide L169A, the other: signal change (%) was -70%.
Same read-out and setting: to FBXO46_(168-183) peptide V176A belongs -85%; to “FBXO46_(168-183) peptide A177 (replacement residue not printed)”, -80%.
The same measure, in the same setting: the value for FBXO46_(168-183) peptide R182A was -85%; that for “FBXO46_(168-183) peptide A173 (replacement residue not printed)” was -75%; that for FBXO46_(168-183) peptide L178A was -65%.
On to FBXO46_(168-183) peptide L170A, for which the other: signal change (%) is -70%.
The same measure, in the same setting: to FBXO46_(168-183) peptide E180A belongs -75%; to “FBXO46_(168-183) peptide A183 (replacement residue not printed)”, -55%; to FBXO46_(168-183) peptide E174A, -80%.
For FBXO46_(168-183) peptide S171A, the other: signal change (%) was -70%.
For the substance FBXO46_(168-183) peptide M175A, the other: signal change (%) was -90%.
The same measure, in the same setting: the value for FBXO46_(168-183) peptide D168A was 150%.

The target of a further test is FITC-ORAI1 48-63 peptide (human). Nature of the test: fluorescence polarisation; saturation: serial dilution of the protein domain, 10 nM FITC-labelled peptide; 50 mM phosphate buffer pH 7.4 with DTT; room temperature; three technical replicates; quadratic fit.
Details: not given
As for “USP11 DUSP-UBL tandem domain (from UniProt P51784 1-963) (domain or fragment)”, the Kd is 294 µM.

Another test concerns the target FITC-GPR137B 348-362 peptide (human). Described as above.
Details: not given
As to “USP20 DUSP2 domain (from UniProt Q9Y2K6 1-914) (domain or fragment)”, the Kd is 5.14 µM.
“USP20 DUSP2 domain K833E/K835E (from UniProt Q9Y2K6 1-914) (domain or fragment)” had a Kd of 293 µM.
Still for that read-out and setting: the value for “USP20 DUSP2 domain N805A (from UniProt Q9Y2K6 1-914) (domain or fragment)” was 140 µM.

In a further test the target is FITC-APBA2 327-338 peptide (human). The description is as above.
Details: not given
For “USP20 zf-UBP domain (from UniProt Q9Y2K6 1-914) (domain or fragment)”, the dissociation constant (Kd) turned out to be 2.91 µM.
On the same count and under the same terms, to “USP33 zf-UBP domain (from UniProt Q8TEY7 1-942) (domain or fragment)” belongs 8.69 µM; to “USP20 zf-UBP domain E55K/D59R (from UniProt Q9Y2K6 1-914) (domain or fragment)”, 388 µM.

The target in a further test is FITC-HIF1A 568-581 peptide (human). The test is described as above.
Details: not given
On to “USP33 DUSP2 domain K863E/K865E (from UniProt Q8TEY7 1-942) (domain or fragment)”, for which the Kd is 319 µM.
In the case of “USP33 DUSP2 domain N835A (from UniProt Q8TEY7 1-942) (domain or fragment)”, the Kd came out at 353 µM.
Same read-out and setting: to “USP33 DUSP2 domain (from UniProt Q8TEY7 1-942) (domain or fragment)” belongs 31.3 µM.

In another test the target is FITC-ATXN7L1 36-57 peptide (human). The test is described as above.
Details: not given
On to “USP22 zf-UBP domain (from UniProt Q9UPT9 1-525) (domain or fragment)”, for which the Kd turned out to be 1 µM.

For another test, the target named is USP33 DUSP2 domain, tag cleaved (for FP) (human) (UniProt Q8TEY7). The test is described as follows: fluorescence polarisation; displacement: unlabeled peptide titrated into the domain (at two-fold the KD of the FITC-labeled peptide) with 10 nM FITC-labeled peptide; 50 mM phosphate buffer pH 7.4, DTT, room temperature; estimated KD.
Details: not given
“HIF1A_(564-581) peptide, wild type, unlabeled (from UniProt Q16665 564-581)”: the Kd was 1.5 µM.
With “HIF1A_(564-581) peptide F572A (from UniProt Q16665 564-581)”, the Kd is over 900 µM.
In the case of “HIF1A_(564-581) peptide D571K (from UniProt Q16665 564-581)”, the equilibrium dissociation constant (Kd) was 145 µM.
On the same count and under the same terms, the value for HIF1A peptide hydroxylated at P564 was 7 µM.
Same read-out and setting: the value for “HIF1A_(564-581) peptide L574A (from UniProt Q16665 564-581)” was over 200 µM.

A further test has as its target USP20 DUSP2 domain, tag cleaved (for FP) (human). Described as above.
Details: not given
On to “HIF1A_(564-581) peptide, wild type, unlabeled (from UniProt Q16665 564-581)”, for which the Kd was 19 µM.
On the same count and under the same terms, the value for “HIF1A_(564-581) peptide D571K (from UniProt Q16665 564-581)” was 85 µM; that for HIF1A peptide hydroxylated at P564 was 26 µM.
Consider “HIF1A_(564-581) peptide L574A (from UniProt Q16665 564-581)”, for which the Kd is 89 µM.

The next test has as its target USP33 zf-UBP domain, tag cleaved (for FP) (human) (UniProt Q8TEY7). The description is as above.
Details: not given
In the case of “APBA2_(327-338) peptide N334A (from UniProt Q99767 327-338)”, the Kd was 112 µM.
For the substance “APBA2_(327-338) peptide, wild type, unlabeled”, the Kd was under 8 µM.
Same read-out and setting: to “APBA2_(327-338) peptide R330A (from UniProt Q99767 327-338)” belongs over 500 µM.
